Reference: article PMC7699706, “Responses of DNA Mismatch Repair Proteins to a Stable G-Quadruplex Embedded into a DNA Duplex Structure” (International Journal of Molecular Sciences, 2020)

Substrate: Nc1ncnc2c1ncn2[C@@H]1O[C@H](COP(=O)(O)OP(=O)(O)OP(=O)(O)O)[C@@H](O)[C@H]1O
Test: malachite green phosphate release assay, Michaelis-Menten fit
Format: biochemical, Escherichia coli
Details: no DNA, 5 mM MgCl2, 120 mM KCl, 10 mM HEPES-KOH pH 7.5, 37 °C, 250 nM MutS dimer
Excerpt: malachite green phosphate release assay, Michaelis-Menten fit on ecMutS

B1: ecMutS (Escherichia coli K-12) (protein)
chain: MSAIENFDAHTPMMQQYLRLKAQHPEILLFYRMGDFYELFYDDAKRASQLLDISLTKRGASAGEPIPMAGIPYHAVENYLAKLVNQGESVAICEQIGDPATSKGPVERKVVRIVTPGTISDEALLQERQDNLLAAIWQDSKGFGYATLDISSGRFRLSEPADRETMAAELQRTNPAELLYAEDFAEMSLIEGRRGLRRRPLWEFEIDTARQQLNLQFGTRDLVGFGVENAPRGLCAAGCLLQYAKDTQRTTLPHIRSITMEREQDSIIMDAATRRNLEITQNLAGGAENTLASVLDCTVTPMGSRMLKRWLHMPVRDTRVLLERQQTIGALQDFTAGLQPVLRQVGDLERILARLALRTARPRDLARMRHAFQQLPELRAQLETVDSAPVQALREKMGEFAELRDLLERAIIDTPPVLVRDGGVIASGYNEELDEWRALADGATDYLERLEVRERERTGLDTLKVGFNAVHGYYIQISRGQSHLAPINYMRRQTLKNAERYIIPELKEYEDKVLTSKGKALALEKQLYEELFDLLLPHLEALQQSASALAELDVLVNLAERAYTLNYTCPTFIDKPGIRITEGRHPVVEQVLNEPFIANPLNLSPQRRMLIITGPNMGGKSTYMRQTALIALMAYIGSYVPAQKVEIGPIDRIFTRVGAADDLASGRSTFMVEMTETANILHNATEYSLVLMDEIGRGTSTYDGLSLAWACAENLANKIKALTLFATHYFELTQLPEKMEGVANVHLDALEHGDTIAFMHSVQDGAASKSYGLAVAALAGVPKEVIKRARQKLRELESISPNAAATQVDGTQMSLLSVPEETSPAVEALENLDPDSLTPRQALEWIYRLKSLV
notes: recombinant, N-terminal His6 tag, expressed in E. coli BL21(DE3), Ni-NTA and size exclusion; homodimer
- Km: 35 ± 15 µM
- kcat: 0.117 ± 0.0167 s⁻¹
